Laboratory results from the nanobody polyreactivity screen of Harvey et al. (2022).

Experiment: yeast display, Sf9 membrane polyspecificity reagent, FACS + sequencing; frameworks hold sequencing errors
Outline: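 Nanobodies came from a synthetic yeast display library in Saccharomyces cerevisiae BJ5465, induced with galactose for 36–48 hours and stained for 1 hour at 4 °C with 10% biotinylated, detergent-solubilized Sf9 membrane reagent. Cells were enriched on streptavidin microbeads and then FACS-sorted, with low and high (top ~1%) gates set on anti-HA fluorescence for expression and streptavidin fluorescence for reagent binding. Each polyreactivity label reflects the gate a clone came from. Genes were amplified by colony PCR, sequenced by MiSeq 2 × 250 and filtered by CDR length.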

Row | Sequence | polyreactivity (PSR sort gate)
1 | QVQLVESGGGLVQAGGSHRLSCAASGSTFTTNAMGWYRQAPGKERELVAAISRRGGSTYYADSVKGRFTISRDNAKNTVYLQMNSLKPEDTAVYYCNAVRAEYEFDYWGQGTQVTVSS | high polyreactivity
2 | QVQLVESGGGLVQAGGSHRLSCAASGSTFYRYAMGWYRQAPGKEREFVAAISTRGGSTHYADSVKGRFTISRDNAKNTVYLQMNSLKPEDTAVYYCNARGYYSVPSNTGIRYYRFDYWGQGTQVTLSS | low polyreactivity
3 | QVQLVESGGGLVQAGGSHRLSCAASGYTFPLYAMGWYRQAPGKERELVADINIGGASTYYADSVKGRFTISRDNAKNTVYLQMNSLKPEDTAVYYCAKEYYDGYFPTFDYDYWGQGTQVTVSS | low polyreactivity
4 | QVQLVESGGGLVQAGGSHRLSCAATGLTFAYYDMGWYRQAPGKERELVAAITSGGTTNYADSVKGRFTISRDNAKNTVYLQMNSLKPEDTAVYYCNADYYSRIVGVRIYDYWGQGTQVTVSS | low polyreactivity
5 | QVQLVESGGGLVQAGGSHRLSCPASGLTFYSNAMGWYRQSPGKERELVASISYRGGITYYADSLKGRFTISRDNAKNTVYLQMNSLKPEDTAVYYGAAGRKGSMYYWGQGTQVTVSS | high polyreactivity
6 | QVQLVESGGGLVQAGGSHRLSCSASGRIFARNVMGWYRQAPGKERELVAAITYSGGRTYYADSVKGRFTISRDNAKNTVYLQMNSLKPEDTAVYYCNAKSFSPPGYRGFDYWGQGTQVTVSS | low polyreactivity
7 | QVQLVESGGGLVQAGGSHRLSFAASGSIFWRNAMGWYRQAPGKERELVAVISGGSTYADSVKGRFTISRDNAKNTVYLKMNSLKPEDTAVYFCNADLYVSSYPKGYDYWGQGTQVTVSS | low polyreactivity
8 | QVQLVESGGGLVQAGGSHRLSSAASGSTFAYHHMGWYRQAPGKEREFVADIRSGGNTNYADSVKGRFTISRDNAKKTVYLLMNSLNPEDTAVYYCATDGYRIDVYHPDYRYDYWGQGSQVTVSS | low polyreactivity
9 | QVQLVESGGGLVQAGGSIRISCAASGSIFIIYAMGWYRQATGKEWELVAGIRGRCGSTYYADSVKGRFTISRDNAKNTVYLQMNSLKPEDTAVYYCDASVYRGYNYWGQGTQVTVSW | high polyreactivity
10 | QVQLVESGGGLVQAGGSIRLSCAASGFISYYYAMGWYRQAPGKERELVAAITKSGGSTYYADSVKGRFTISRDNAKNTVYLQMNSLKPEDTAVDYCAAVRSTRNSTSRLYGYWGQGTQVNVSS | low polyreactivity
11 | QVQLVESGGGLVQAGGSIRLSCAASGFTFDQYAMGWYRQAPGKERELVAAISSGTRTYYADSVKGRFTISRDNAKNTVYLQMNSLKPEDTAVYYCIARSVRYRDLYDYWGQGTQVTVSS | low polyreactivity
12 | QVQLVESGGGLVQAGGSIRLSCAASGITFRPNAMGWYRQAPGKERELVAAISSGDGTYADSVKGRFTISRDNAKNTVYLQMNSLKPEDTAVYYCNATGQSYVTSEYDYWGQGTQVTVSS | low polyreactivity
13 | QVQLVESGGGLVQAGGSIRLSCAASGRIFHLYAMGWYRQAPGKERELVAAISRGGDTYYADSVKGRFTISRDNAKNTVYLQMYSLKPEDTAVYYCAAGRWVYTVGYYPVGYYYWGQGTQVTVSS | high polyreactivity
14 | QVQLVESGGGLVQAGGSIRLSCAASGRIFKGYAMGSYRQAPGKERELVAAISSRGGITYYADSVKGRFTISRDNAKNSVYLEMNSLNPEDTAVYYCAAVYKWSRYGGYKYWGQGTQVTVSS | low polyreactivity
15 | QVQLVESGGGLVQAGGSIRLSCAASGRIFQYYAMGWYRQAPGKERELVAAISRSGGRTRYADSVKGRFTISRDNAKNTVYLQMNSLKPEDTAVYYCAASYGYDSTSLYDYWGQGTQVTVSS | high polyreactivity
16 | QVQLVESGGGLVQAGGSIRLSCAASGRTFHYNVMGGYRQAPGNERELVAAITNTGGSTYYADSVKGRFTISRDNAKNTVYLQMYSLKPVDTAVYYCAAVIWGRRYGAYPYEYWGQGTQVTVSS | low polyreactivity
17 | QVQLVESGGGLVQAGGSIRLSCAASGSIFGAYAMGWYRQAPGKERELVATITLRDGSTYYADSVKGRFTSSRDNAKNTVYLQMNSLKPEDTAVYYCATYYSAINYGWSKTILYDYWGQGTQVTVSS | low polyreactivity
18 | QVQLVESGGGLVQAGGSIRLSCAASGSIFRIYVMGWYRQAPGQERELVAAINSGGRTKYADSVKARFTISRDNAKNTVYLQMNSLKPEDTAVYYCAAAFQYRKGVSSLYASWGQGTQVTLSS | high polyreactivity
19 | QVQLVESGGGLVQAGGSIRLSCAASGSTFGGNAMGWYRQAPGKERELVAAITGTGGRTFYADSVKGRFTISRDNAKNTVYLQMNSLKPEDTAVYFCAADSYIYSVNYWGQGTQVTVSS | low polyreactivity
20 | QVQLVESGGGLVQAGGSIRLSCAASGSTFRVYAMGWYRQAPGKERELVAAISSSGGITYYADSVKGRFTISRDNAKNTVYLQMNSLKPEDTAVYYCAKGTVIHVLYDYWGQGTQVTVSS | low polyreactivity
21 | QVQLVESGGGLVQAGGSIRLSCAASGSTFYAYAMGWYRQAPGKERELVAAIDTGGSTYYADSVKGRFTISRDNAKNTVYLQMNSLKPEDTAVYYCNAVVDTTEYPYEYDYWGQGTQVTVSS | low polyreactivity
22 | QVQLVESGGGLVQAGGSIRLSCAASVFTFRANGMGWYRKAPGKERELVATITSGGTTNYADSVKGRFTISRDNAKNTVYLQMNSLIPEDTAVYYCNAGSVSDRQMDYWGQGTQGTVSS | low polyreactivity

Row | Sequence | polyreactivity (PSR sort gate)
23 | QVQLVESGGGLVQAGGSIRLSCAPSGSPNVTYDMGWYRQAPGKESELVASISRGGSTKYADSVKGRFTISRDNAKNTVFLQMNSLKPEDTAVFYGAAKAKNYRLGPYDYWGQGTQVTVSS | low polyreactivity
24 | QVQLVESGGGLVQAGGSIRLSCSASGRIFNRNAMGWYRKAPGKERELVAAISSDTSTNYADSVKGRFTISRDNAKNNVYLQMNSLKPEDTAVYYCNADGYYDMDYWGQGTQVTVSS | low polyreactivity
25 | QVQLVESGGGLVQAGGSIRLTCAASGLIIGVYAKGWYRQAPGKERELVAAITDGGSTYYADSVKGRFTISRDNEQNTVSLQMNSVKPEDTAVYYCAREQGVNRNHDYWGQGTQVTVSS | low polyreactivity
26 | QVQLVESGGGLVQAGGSLGLSCAASGFIVGYYTMGWDRQAPGKERELVAAISSSGGRTYDADSVKGRFTISRDKAKNTVYFQMNSLKPEDTAVYYCNADRTLRFGYGYCGQGTQVTVSS | low polyreactivity
27 | QVQLVESGGGLVQAGGSLGLSCAASGIIFGTYGMGWYRQAPGKERELVAAITTRGSSTYYADSVKGRFTISRDNAKNSVYLQMNSLKPEDTAVYYCAAVSVRRNRMDSWGQGTQVTVSS | high polyreactivity
28 | QVQLVESGGGLVQAGGSLGLSCAASGLIFQAYAMGWYRQAPGKERELVAAINWSGDSTYYADSVKGRFTISRDNAKYTVYLQMNSLKPEDTAVYYCAARYRRAKYGYWGQGTQVTVSS | high polyreactivity
29 | QVQLVESGGGLVQAGGSLGLSCAASGLTFTHYTMGWYRQAPGKERELVAGISQTGGSTYYADSVKGRFTISRDNAKNTVYLQMNSLKPEDTAVYYCSRVFPRPRTGYYYWGQGTQVTVSS | high polyreactivity
30 | QVQLVESGGGLVQAGGSLGLSCAASGNMFGRYAMGWYRQAPGKEREYVATITYSGGSTYYADSVKGPFTISRDNAKNTVYLQMNSLKQEDTAVYYCAARVGRPTLVAAKYDYWGQGTQVTVSS | high polyreactivity
31 | QVQLVESGGGLVQAGGSLGLSCAASGRTFFDYAMGWYRQAPGKERELVAAINWSGGRTYYADSVKGRFSISRDNAKNTVYLQMNSLKPEDTAVYDCNVYTRGRYEYWGQGTQVTVSS | low polyreactivity
32 | QVQLVESGGGLVQAGGSLGLSCAASGRTFGPYAMGWYRQAPGKERELVAAISASGASTSYADSVKGRFTIARDNAKNTVYLQMNSLKPEDTAVYYCARSYYHRPFGYWGQGTQVTVSS | low polyreactivity
33 | QVQLVESGGGLVQAGGSLGLSCAASGRTFGRYVMGWYRLAPGTEWELVAAIRSSGGGTYYADSVKGRFTISRDNAKNTVYLQMNSLKPEETAVYYCAKEYSIGIRWEYDYWGQGTQVTVSS | low polyreactivity
34 | QVQLVESGGGLVQAGGSLGLSCAASGSTLYGNAMGWYRQAPGKERELVAAINTGGSTNYADSVKGRFTISRDNAKNTVYVQMNSLKPEDTAVYYCAADYEWDATHDYWGQGTQVTVSS | low polyreactivity
35 | QVQLVESGGGLVQAGGSLGLSCAAYGSTFRYYAMGWYRQAPGKERELVAAISSAGNTYYADSVKGRFTISRDNAKNTVYLQMNSLKPEDTAVYYCAAKYSYYTYAGDGGLFSCSYGYWGQGTQVTVSS | low polyreactivity
36 | QVQLVESGGGLVQAGGSLLISCAASGRIFYYNTMGWSRQEPGKESELVAAITTNGGSTYYADSVKGRFTISRDNAKITVYLQMNSLNPEDTAVYYCNRDRYPYYSAYNYWGQGTQVTVSS | low polyreactivity
37 | QVQLVESGGGLVQAGGSLLLICAASGFIFVPYAMGWYRQAPGKEREFVATITWRGDSTYYADSVKGRFTISRDNAKNTVYLQMNSLKPEDTAVYYCAVYPIRLWAYDYWGQGTQVTVSS | low polyreactivity
38 | QVQLVESGGGLVQAGGSLLLICAASGSILGTNAMGWYRQAPGKERELVAAISSSGRTSYADSVKGRFTISRDNAKNTVSLQMNSLKPEDTAVYYCNASNYIVLIIDPDAAPWLYDYWGQGTQVTVSS | low polyreactivity
39 | QVQLVESGGGLVQAGGSLLLICSASGSTFVRHAMGWYRHAPGKESELDAAISTRGGSTSYADSVKGRFTISRDNSKNSVYLQMKSLKQEDTAVYYCAKVLAYSQGIRHGYWGQGTQVTVSS | low polyreactivity
40 | QVQLVESGGGLVQAGGSLLLRCAASGSIFPWNTMGWNRQAPGKERELVARISTSGASTYYADSVKGRFTISRDNAKNTVYLQMNSRKPEDTAVYYGAARDWSHRPRGYDYWGQGTQVTVSS | high polyreactivity
41 | QVQLVESGGGLVQAGGSLLLSCAASGFTFRYYAMGWYRQAPGKERELVAAITGSGTRTYYADSVKGRFTISRDYGKNTVYLQMNSLKPEDPAVYYCNAPRQPRWFDYWGQGTQVTVSS | high polyreactivity
42 | QVQLVESGGGLVQAGGSLLLSCAASGFTLEKNAMGWYRTAPGKERELVADISSTDSTNYADSVKGRFTISRDNAKITVYFQMNSVKPEDTAVYYCGRYDGPGTEEFDYWGQGSQVTVSS | low polyreactivity
43 | QVQLVESGGGLVQAGGSLLLSCAASGGTFGGYTMGWYRQAPVKERELVAAITRSGSSTFYADSVKGRFTISRDNAKNTVYLQMNSLKPEDTAVYYCAALWHAVFYADYDYWGQGTQVSVSS | high polyreactivity
